Substitutions are numbered along the chain they refer to.
What was measured:
[1] = target: T1, Flag-tagged FANCJ wild type (human, UniProt Q9BX63 1-1249); assay: pull-down; GST-SepB α-helix bundle (0.5 µg) on Glutathione Sepharose 4B beads, purified Flag-FANCJ (0.5 µg) added; 25 mM Tris-HCl pH 7.5, 150 mM NaCl, 0.1% Triton X-100, 4 °C; washes with 300 mM NaCl, 1% Triton X-100; Western blot; conditions: both partners purified
T1 construct: FANCJ (BRIP1, BACH1) DNA helicase, human, open reading frame; purified as full-length protein; Plasmid from Hisao Masai (Uno et al, 2012); also called FANCJ WT; Flag-FANCJ WT; source: HEK 293T, transiently transfected (pCSII-EF-MCS): in whole-cell extract or nuclear fraction; also purified (anti-Flag M2 agarose, 3x Flag-peptide elution)
T1 sequence (looked up): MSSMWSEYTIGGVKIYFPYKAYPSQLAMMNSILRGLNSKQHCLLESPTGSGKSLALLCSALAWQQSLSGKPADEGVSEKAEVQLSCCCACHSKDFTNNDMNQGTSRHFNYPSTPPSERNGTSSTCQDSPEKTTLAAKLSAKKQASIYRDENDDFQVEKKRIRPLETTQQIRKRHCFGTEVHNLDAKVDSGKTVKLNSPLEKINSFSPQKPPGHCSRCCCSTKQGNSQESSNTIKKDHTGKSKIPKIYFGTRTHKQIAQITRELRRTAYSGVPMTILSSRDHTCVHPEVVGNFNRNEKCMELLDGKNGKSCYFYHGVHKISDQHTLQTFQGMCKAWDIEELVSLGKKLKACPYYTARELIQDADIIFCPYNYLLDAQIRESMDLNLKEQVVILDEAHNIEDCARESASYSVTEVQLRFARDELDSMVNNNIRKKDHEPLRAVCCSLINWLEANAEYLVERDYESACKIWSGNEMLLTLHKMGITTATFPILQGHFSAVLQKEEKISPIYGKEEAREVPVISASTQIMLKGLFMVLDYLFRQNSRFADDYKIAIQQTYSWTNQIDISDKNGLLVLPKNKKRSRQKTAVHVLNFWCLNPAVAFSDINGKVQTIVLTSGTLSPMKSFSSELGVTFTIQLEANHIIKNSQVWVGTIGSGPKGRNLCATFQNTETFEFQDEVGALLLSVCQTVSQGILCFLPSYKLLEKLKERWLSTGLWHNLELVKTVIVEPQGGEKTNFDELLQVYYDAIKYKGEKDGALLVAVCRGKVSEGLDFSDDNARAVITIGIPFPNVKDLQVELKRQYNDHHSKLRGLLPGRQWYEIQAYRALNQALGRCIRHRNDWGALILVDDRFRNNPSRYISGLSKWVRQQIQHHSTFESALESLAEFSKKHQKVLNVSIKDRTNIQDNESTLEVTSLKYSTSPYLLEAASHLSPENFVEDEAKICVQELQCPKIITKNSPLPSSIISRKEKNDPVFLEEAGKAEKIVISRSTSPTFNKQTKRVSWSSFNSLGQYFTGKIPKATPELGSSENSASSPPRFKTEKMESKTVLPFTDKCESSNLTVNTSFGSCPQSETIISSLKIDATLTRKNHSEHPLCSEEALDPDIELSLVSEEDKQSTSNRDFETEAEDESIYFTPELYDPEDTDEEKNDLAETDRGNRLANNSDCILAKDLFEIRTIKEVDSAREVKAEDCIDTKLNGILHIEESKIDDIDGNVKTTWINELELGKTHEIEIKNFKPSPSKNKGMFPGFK

[2] = target: T2, Flag-tagged FANCJ D736H (human, UniProt Q9BX63 1-1249, D736H); assay: as above; conditions: both partners purified
T2 construct: FANCJ (BRIP1), human, full-length; missense variant found in invasive breast carcinoma; source: HEK 293T, transiently transfected, purified (anti-Flag M2 agarose)
T2 sequence (looked up): T1 sequence (looked up) with D736H

B1: GST-SepB α-helix bundle WT (domain or fragment, human, UniProt O75717 718-824, looked up)
chain: IATEKGQMEEQFWRSVIFHNHLDYLAKNGYEYEESTKNQATKEQQELLMKMLALSCKLEREFRCVELADLMTQNAVNLAIKYASRSRKLILAQKLSELAVEKAAELT
notes: AND-1 (WDHD1), human, α-helix bundle of the SepB domain, amino-acid residues 718-824; Cloned into pGEX-2T; also called GST-SepB α-helix bundle chimeric protein; source: E. coli Rosetta pLysS (DE3), purified (Glutathione Sepharose 4B)
[1]
  binding result: binds
[2]
  binding result: binds
